Experimental data reported in paper doi:10.1101/2020.12.08.416511 (bioRxiv, 2020).

Molecular target: human β-cardiac myosin subfragment 1 heavy chain (amino acids 1-841) (human, UniProt P12883 1-841)
Assay: pull-down

human β-cardiac myosin subfragment 1 heavy chain (amino acids 1-841), sequence (P12883 1-841): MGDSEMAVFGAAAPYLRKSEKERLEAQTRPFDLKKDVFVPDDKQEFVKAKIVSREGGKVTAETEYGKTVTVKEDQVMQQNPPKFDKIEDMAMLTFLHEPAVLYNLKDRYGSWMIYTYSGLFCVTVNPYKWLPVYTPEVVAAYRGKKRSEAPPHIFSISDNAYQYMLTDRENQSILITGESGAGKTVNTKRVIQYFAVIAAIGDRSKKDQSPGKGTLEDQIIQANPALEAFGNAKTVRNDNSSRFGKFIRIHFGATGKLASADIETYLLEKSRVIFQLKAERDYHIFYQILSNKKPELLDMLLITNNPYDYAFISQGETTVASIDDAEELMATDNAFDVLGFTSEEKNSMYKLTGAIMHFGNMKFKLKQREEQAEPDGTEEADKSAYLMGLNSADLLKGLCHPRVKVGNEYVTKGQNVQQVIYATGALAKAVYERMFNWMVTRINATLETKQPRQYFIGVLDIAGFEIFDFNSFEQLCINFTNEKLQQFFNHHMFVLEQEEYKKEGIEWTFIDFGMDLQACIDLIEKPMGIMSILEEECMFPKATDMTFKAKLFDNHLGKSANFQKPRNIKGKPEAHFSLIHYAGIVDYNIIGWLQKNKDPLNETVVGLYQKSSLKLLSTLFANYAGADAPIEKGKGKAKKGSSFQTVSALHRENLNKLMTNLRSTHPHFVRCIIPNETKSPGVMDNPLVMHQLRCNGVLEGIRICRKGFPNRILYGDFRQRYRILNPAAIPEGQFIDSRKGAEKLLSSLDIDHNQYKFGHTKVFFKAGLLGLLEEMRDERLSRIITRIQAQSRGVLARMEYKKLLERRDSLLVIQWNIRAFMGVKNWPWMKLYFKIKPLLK

stoichiometry N: 1 A488RLC per M2β-S1
B1: Alexa 488-labeled human ventricular cardiac regulatory light chain (V105C) (natural protein)
chain: MAPKKAKKRAGGANSNVFSMFEQTQIQEFKEAFTIMDQNRDGFIDKNDLRDTFAALGRVNVKNEEIDEMIKEAPGPINFTVFLTMFGEKLKGADPEETILNAFKCFDPEGKGVLKADYVREMLTTQAERFSKEEVDQMFAAFPPDVTGNLDYKNLVHIITHGEEKD
modifications: Alexa Fluor 488 C5 maleimide on the single reactive cysteine at position 105
